Patent US20240247250
Like-named read-outs stand apart in the source and are kept apart here.

What was measured:
[1] = biological target: tRNA-guanine transglycosylase (TGT) (Escherichia coli) (UniProt P0A847); details: urea PAGE shift
[2] = biological target: tRNA-guanine transglycosylase (TGT) (Escherichia coli) (UniProt P0A847); details: urea PAGE shift; best of composite hairpins

tRNA-guanine transglycosylase (TGT) (Escherichia coli), sequence (P0A847 whole entry): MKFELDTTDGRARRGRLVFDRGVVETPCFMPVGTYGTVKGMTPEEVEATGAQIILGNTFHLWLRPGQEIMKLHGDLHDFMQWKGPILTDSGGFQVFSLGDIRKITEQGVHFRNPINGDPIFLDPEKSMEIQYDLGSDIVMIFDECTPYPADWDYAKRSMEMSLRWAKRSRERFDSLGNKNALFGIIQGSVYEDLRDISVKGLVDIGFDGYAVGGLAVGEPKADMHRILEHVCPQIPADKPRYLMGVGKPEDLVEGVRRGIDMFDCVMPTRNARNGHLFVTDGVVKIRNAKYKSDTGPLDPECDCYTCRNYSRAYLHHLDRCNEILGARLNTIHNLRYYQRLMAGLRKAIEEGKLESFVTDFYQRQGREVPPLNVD

Substance: Asp 17 nt DNA hairpin
- activity [1]: 40 % labeled

Substance: His 17 nt DNA hairpin
- activity [1]: 40 % labeled

Substance: His stem-Asp loop hairpin
- activity [2]: > 50 % labeled

Substance: Tyr 17 nt DNA hairpin
- activity ([1]; printed as ~-5%): 5 % labeled
